Results as given in patent US20190241886A1 (ADAGENE, published 2019).
Blank lines part the entries; values can stand above or below the binder they belong to.

Assays:
[1] = target: T1, Recombinant human CTLA4-Fc (human, UniProt P16410 36-161, limits assumed); test: ELISA EC50 divided by EC50 of parental TY21580 (FIG. 24A)
T1 construct: Coated on the ELISA plate at 1 ug/mL; also called antigen; not shown: Fc part
T1 sequence (looked up): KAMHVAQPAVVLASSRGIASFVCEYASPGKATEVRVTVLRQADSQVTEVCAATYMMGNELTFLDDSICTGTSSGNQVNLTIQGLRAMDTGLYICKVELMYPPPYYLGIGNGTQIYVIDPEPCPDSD
Experimental: (§1) Recombinant human CTLA4-Fc was diluted to 1μg/mL in PBS and coated on a Maxisorp plate at 4° C. overnight. Plates were blocked with PBS supplemented with 3% non-fat milk at 37° C. for 1 hour. After washing, 100 μL of 3-fold serial dilutions of antibodies were added to each well. After incubation at 37° C. for 1 hour, plates were washed four times, and 100 μL HRP conjugated anti-human IgG (Fab specific) (1:6000 dilution) was added to each well. Plates were incubated at 37° C. for 1 hour, washed four times, and then 50 μL TMB substrate solution was added to each well, and the plate was incubated at room temperature. Absorbance at 450 nm was measured after the reactions were stopped with 50 μL H₂SO₄ per well. The EC₅₀ was evaluated by fitting the ELISA data using the asymmetrical sigmoidal (five-parameter logistic equation) model of GraphPad Prism 6 software.

[2] = target: T1, Recombinant human CTLA4-Fc; test: ELISA EC50 divided by EC50 of parental TY21580 (FIG. 24B)
Experimental: as §1

[3] = target: T1, Recombinant human CTLA4-Fc; test: ELISA EC50 divided by EC50 of parental TY21580 (FIG. 25)
Experimental: as §1

Masking efficiency [1]: 243 | Masking efficiency [2]: 554
B1: TY22402 (as listed in Table 11) (antibody, V domains shown)
VH: EVQLVESGGGLVQPGGSLRLSCAASGYSISSGYHWSWIRQAPGKGLEWLARIDWDDDKYYSTSLKSRLTISRDNSKNTLYLQLNSLRAEDTAVYYCARSYVYFDYWGQGTLVTVSS
VL: EVGSYIVHHSDCDAFYPYCDSSGRSAGGGGTPLGLAGSGGSDIQLTQSPSSLSASVGDRVTITCRASQSVRGRFLAWYQQKPGKAPKLLIYDASNRATGIPSRFSGSGSGTDFTLTISSLQPEDFATYYCQQSSSWPPTFGQGTKVEIKR
notes: kept apart from m3; Expressed in mammalian cells; isotype not restated

Masking efficiency [3]: 469 | Masking efficiency [1]: 308 | Masking efficiency [2]: 572
B2: TY22404 (as listed in Tables 11 and 14) (antibody, V domains shown)
VH: B1 VH
VL: EVGSYPNPSSDCVPYYYACAYSGRSAGGGGTPLGLAGSGGSDIQLTQSPSSLSASVGDRVTITCRASQSVRGRFLAWYQQKPGKAPKLLIYDASNRATGIPSRFSGSGSGTDFTLTISSLQPEDFATYYCQQSSSWPPTFGQGTKVEIKR
notes: kept apart from m5; Expressed in mammalian cells; isotype not restated
